The values below come from patent US20220002357A1.

Test [1] deals with µ-opioid receptor (MOR) fused to Gαi1 protein (MOR-Gi1) (human) (UniProt P63096). Kind of test: ADSoRB radiotracer elution from microsomal membranes with GPPNHP, scintillation counting (FIG. 2B).
The target is the same in test [2]. Kind of test: ADSoRB radiotracer elution from microsomal membranes with buffer control, scintillation counting (FIG. 2B).
The target of test [3] is mu-opioid receptor unfused (MOR). In words: ADSoRB radiotracer elution from microsomal membranes with GPPNHP, scintillation counting.
Test [4] deals with mu-opioid receptor fused to Gαi1-RLuc8 chimera (MOR-Gi1RLuc) (human) (UniProt P63096). The description is as above.
The target in test [5] is mu-opioid receptor unfused (MOR). In words: ADSoRB radiotracer adsorption to microsomal membranes, scintillation counting.
Test [6] concerns the target mu-opioid receptor fused to Gαi1-RLuc8 chimera (MOR-Gi1RLuc) (human) (UniProt P63096). The test is described as above.
Another test concerns the target neurotensin receptor. Kind of test: cell-based or functional assay.

Chain of mu-opioid receptor fused to Gαi1-RLuc8 chimera (MOR-Gi1RLuc) (human) (P63096 whole entry, change not shown, the tested form may be a part): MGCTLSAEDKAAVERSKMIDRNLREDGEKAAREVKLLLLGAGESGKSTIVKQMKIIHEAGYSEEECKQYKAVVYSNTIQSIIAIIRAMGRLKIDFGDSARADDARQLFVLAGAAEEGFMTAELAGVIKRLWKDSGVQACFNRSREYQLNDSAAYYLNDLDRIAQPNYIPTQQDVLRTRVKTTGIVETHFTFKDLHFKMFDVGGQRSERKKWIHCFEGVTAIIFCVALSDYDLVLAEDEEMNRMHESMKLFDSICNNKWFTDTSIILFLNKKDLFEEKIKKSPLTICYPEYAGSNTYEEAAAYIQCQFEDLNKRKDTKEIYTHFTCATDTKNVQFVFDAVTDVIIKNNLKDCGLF
Chain of µ-opioid receptor (MOR) fused to Gαi1 protein (MOR-Gi1) (human) (P63096 whole entry, the tested form may be a part): as the sequence (P63096 whole entry, change not shown, the tested form may be a part) above

As to [3H]DAMGO (peptide), the elution upon complex dissociation/uncoupling with GPPNHP (% of total agonist added) (% of total agonist added) in test [1] worked out at 30. In test [2], this substance yielded an elution with buffer control (% of total agonist added) (% of total agonist added) of 2. The fraction of agonist eluted upon GPPNHP treatment (% of total agonist) (% of total agonist) in test [3] was 0.8; in test [4], 7. The unbound tracer (%) (% unbound tracer) amounted to 67 in test [5] and 23 in test [6].

As for “neurotensin peptide (8-13) (from UniProt P30990 31-36)”, in the test with neurotensin receptor, the NET BRET response at GαZ, 96-well plate is 0.495; the NET BRET response at GαZ, 384-well plate amounted to 0.625; the Neurotensin potency, GαZ-114-Rluc8/Gβ3γ1-GFP2 BRET biosensor, 96-well plate was 1.85 nM; the Neurotensin potency, GαZ-114-Rluc8/Gβ3γ1-GFP2 BRET biosensor, 384-well plate was determined as 1.68 nM.
